Assay results: US20250215105A1, “ANTI-CD39 ANTIBODY” (BrightPath Biotherapeutics Co., Ltd., priority 2022, published 2025)

T1: Human CD39 antigen (Homo sapiens, UniProt P49961)
T1 sequence (P49961 1-510): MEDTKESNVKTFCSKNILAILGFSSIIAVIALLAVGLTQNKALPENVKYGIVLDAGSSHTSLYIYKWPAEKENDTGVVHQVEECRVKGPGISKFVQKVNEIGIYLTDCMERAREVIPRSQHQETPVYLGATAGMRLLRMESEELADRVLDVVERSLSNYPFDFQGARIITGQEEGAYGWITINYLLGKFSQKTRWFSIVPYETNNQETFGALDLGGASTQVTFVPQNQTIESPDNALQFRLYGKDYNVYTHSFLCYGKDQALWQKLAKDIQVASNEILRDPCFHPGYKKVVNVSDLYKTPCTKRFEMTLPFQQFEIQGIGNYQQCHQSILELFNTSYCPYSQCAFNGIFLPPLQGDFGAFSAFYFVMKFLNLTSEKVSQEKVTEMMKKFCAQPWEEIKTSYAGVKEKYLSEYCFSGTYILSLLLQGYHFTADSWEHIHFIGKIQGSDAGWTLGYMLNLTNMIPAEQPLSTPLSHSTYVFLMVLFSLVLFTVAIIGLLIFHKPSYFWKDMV

T2: human CD39 (Homo sapiens, UniProt P49961)
T2 sequence (P49961 1-510): T1 sequence (P49961 1-510)

B1: P4_sc: anti-CD39 scFvFc (Fc silent) from phage display (antibody, V domains shown)
VH: QVQLKESGPSLVQPSQSLSITCTVSGFSLTNYGVHWVRQSPGKGLEWLGVILRRGSTDYNAAFMSRLSITKDNSKSQVFFKMNSLQADDTAIYYCAKTAVVAGDYFDYWGQGTTLTVSS
VL: DIVMTQSHKFMSTSVGDRVSVTCKASQNVGTNVAWYQQKPGQSPKALIYSASYRYSGVPDRFTGSGSGTDFTLTISNVQSEDLAEYFCQQYNSYPLTFGTGTKLEIK
modifications: left off: another chain or arm of the molecule; a dimerising Fc or GST; small tags and cut ends
notes: anti-CD39 scFvFc (Fc silent) from phage display
B2: HuP4_IB_sc: humanized scFvFc obtained by humanizing P4_sc (antibody, V domains shown)
VH: QVQLLESGPELVKPSATLSITCTVSGFSLTNYGVHWIRQAPGKGLEWLGVILRRGSTDYNAAFMSRFTISKDNSKNQVYFKLRSVTAEDTAVYYCAKTAVVAGDYFDYWGQGTMVTVSS
VL: DIQMTQSHSTLSLSVGDRVTITCKASQNVGTNVAWYQQKPGQPPKALIYSASYRYSGVPSRFSGSGSGTDFTLTISSVQAEDVAVYYCQQYNSYPLTFGPGTKLEIK
modifications: left off: another chain or arm of the molecule; a dimerising Fc or GST; small tags and cut ends
notes: humanized scFvFc obtained by humanizing P4_sc
B3: T-31414h1lala: anti-CD39 antibody with variable regions described in US2019/0062448, IgG1-lala constant region (antibody, V domains shown)
VH: QVQLVQSGAEVKKPGASVKVSCKASGYTFKSYEMHWVRQAPGQGLEWMGRINPSVGSTWYAQKFQGRVIMIRDTSTSTVYMELSSLRSEDTAVYYCARGKREGGTEYLRNWGQGTLVTVSS
VL: EIVLIQSPGILSLSPGERATLSCRASQSVSSSYLAWYQQKPGQAPRLLIYGASSRATGIPDRFSGSGSGTDFTLTISRLEPEDFAVYYCQQYHSYITFGGGTKVEIK
modifications: IgG1 LALA constant regions; T-31414 VH; T-31414 VL
notes: anti-CD39 antibody with variable regions described in US2019/0062448, IgG1-lala constant region

What was measured:
[1] = target: T1, Human CD39 antigen; assay: affinity by surface plasmon resonance (SPR) analysis; conditions: Biacore 8K, 1:1 binding model
Experimental: Kinetics of each antibody against their target antigen were measured using Biacore 8K (Cytiva). Each antibody to be measured was immobilized on a sensor chip (CM5) using a Mouse Antibody Capture Kit, type 2 (Cytiva, 29215281) for mouse antibodies and a Human Antibody Capture Kit, Type 2 (Cytiva, 26234600) for chimeric and humanized antibodies, respectively. Human CD39 antigen was subjected to 4-step dilution from […] to prepare each solution, the contact time was set to 120 seconds, the dissociation time was set to 600 seconds, and the flow rate was set to 30 μl/min. Under these conditions, HBS-EP+ was used as the running buffer, and each sample was then analyzed using the 1:1 binding model of multi-cycle kinetics.

[2] = system: Cynomolgus monkey CD39; assay: CD39 binding analysis (FCM) using Cynomolgus monkey CD39-overexpressing cells; conditions: 293T-cynoCD39 cells, 2 μg/ml antibody
Experimental: Binding to target antigen-expressing cells was analyzed using Cynomolgus monkey CD39-overexpressing cells. This analysis was used to check cross-reactivity. The Cynomolgus monkey CD39-overexpressing cells were generated using a lentiviral vector system (OriGene, PS100069). Lentiviral particles carrying the Cynomolgus monkey CD39 gene (Gene ID: 102132860) as the target gene together with the puromycin resistance gene were generated and used to infect HEK293T cells therewith. Then, the cells were cultured in the presence of puromycin. HEK293T cells (293T-cynoCD39) in which the target gene was integrated into the genome and which became positive for Cynomolgus monkey CD39 were collected and used for FCM analysis. The cells were reacted with 2 μg/ml test antibody or isotype control antibody, stained with a fluorescence-labeled secondary antibody, and evaluated for antibody binding based on the fluorescence intensity obtained by flow cytometry analysis.

[3] = target: T2, human CD39; assay: activity to inhibit CD39 enzyme (ATP hydrolysis by CD39-expressing cells, CellTiter-Glo); type: cell-based; set-up: CD39^hi-expressing human melanoma cell line SK-MEL-28 (ATCC, HTB-72) or human ovarian adenocarcinoma cell line OAW-42; endogenous in cells; host or cells: SK-MEL-28 (ATCC, HTB-72) or OAW-42 (CLS, 300304); conditions: SK-MEL-28 or OAW-42 cells, ATP 10 μM
Experimental: Two thousand SK-MEL-28 cells (ATCC, HTB-72), a CD39′-expressing line, suspended in 50 μl EMEM (Fujifilm, 055-08975) were seeded onto a 96-well V-bottom plate and incubated at 37° C. for 30 minutes with 150 μl of culture supernatant of single B cells. The cells were washed once with DPBS (Nacalai Tesque, 14249-24), then 100 μl of 5 μM ATP was added per well, and the mixture was incubated at 20° C. for 30 minutes. After centrifugation, 50 μl of the supernatant was separated, 50 μl CellTiter-Glo (Promega, G9243) was added and stirred, and after incubation at room temperature for 10 min, the amount of ATP was measured by chemiluminescence while using a microplate reader. The ability of B cell culture supernatant to inhibit CD39-mediated ATP hydrolysis was evaluated based on the amount of residual ATP.
The antibodies obtained in the above experiments were used to measure activity to inhibit CD39 enzyme by using the following procedure. […] After centrifugation, 50 μl of the supernatant was separated, 50 μl CellTiter-Glo was added and stirred, and after incubation at room temperature for 10 minutes, the level of chemiluminescence was measured using a microplate reader. Based on the amount of ATP consumed by SK-MEL-28 or OAW-42 cells, the ability of the antibody to inhibit CD39-mediated ATP hydrolysis was evaluated. […]

[4] = target: T2, human CD39; assay: CD39 binding analysis (FCM) using human CD39-overexpressing cells; conditions: 293T-hCD39 or Jurkat-hCD39 cells
Experimental: 3.1 CD39 binding analysis (FCM analysis) (using human CD39) Binding to target antigen-expressing cells was analyzed by FCM analysis using human CD39-overexpressing cells. The human CD39-overexpressing cells were generated using a lentiviral vector system (OriGene, PS100069). Lentiviral particles carrying the human CD39 gene (Gene ID: 953) as the target gene together with the puromycin resistance gene were generated and used to infect HEK293T or Jurkat cells therewith. Then, the cells were cultured in the presence of puromycin. HEK293T or Jurkat cells ([…] or Jurkat-hCD39) in which the target gene was integrated into the genome and which became positive for human CD39 were collected and used for FCM analysis. Test or isotype control antibodies at a final concentration of 2 μg/mL or at the concentrations indicated in the figure were reacted with 1×10^5 cells for 15 minutes at 4° C., followed by washing twice with 0.5% BSA, 2 mM EDTA, and D-PBS. After washing, a fluorescent-labeled secondary antibody (anti-human IgG Fc, HP6017) was added, and the cells were stained at 4° C. for 15 minutes under light-shielded conditions, followed by washing twice in a similar manner. After addition of 7AAD (BioLegend, 420404), fluorescence intensity was measured using a flow cytometer (FACSVerse, BD). Antibody binding was evaluated based on the fluorescence intensity obtained.

[5] = system: human lung cancer cell line NCI-H292; assay: anti-tumor activity: NCI-H292 growth with stimulated PBMCs and ATP (IncuCyte); type: cell-based; conditions: NCI-H292 with PBMCs E/T 2, ATP 500 μM
Experimental: The human lung cancer cell line NCI-H292 having red fluorescent protein (RFP) was seeded on a 96-well plate and cultured overnight. The next day, after removal of the medium, IL-2 (Miltenyi, 130-097-745) at a final concentration of 30 IU as suspended in X-VIVO-15™ medium (Lonza, 04-418Q) and an anti-human CD39 antibody or isotype control antibody at a final concentration of 0.3 to 100 μg/mL were added and the mixture was incubated at 37° C. for 30 minutes. Then, PBMCs from healthy volunteers stimulated with Dynabeads™ Human T-Activator CD3/CD28 (VERITAS, DB11131) for 10 days were added at an E/T ratio of 2 and the mixture was incubated at 37° C. for 30 minutes. […] This made it possible to evaluate the anti-tumor activity of the antibody due to its ability to promote the cytotoxic activity of PBMCs.

| Molecule | affinity for human CD39 (KD) [1] | binding to monkey CD39 [2] | CD39 inhibitory activity [3] | affinity for human CD39 on the cell surface [4] | growth rate of cancer cells [5] |
| --- | --- | --- | --- | --- | --- |
| B1 | favorable affinity | bound to monkey CD39 | activity to inhibit human CD39 | favorable affinity |  |
| B2 |  |  | favorable CD39 inhibitory activity |  |  |
| B3 |  |  |  |  | approximately 0.9 |
